Results taken from paper doi:10.1101/2022.01.31.478542.

Experiments:
[1] = turbidity; conditions: other: turbidity (light scattering at 340 nm) of cell-free assembly
[2] = tested on: P04590; assay: turbidity; conditions: other: turbidity (light scattering at 340 nm) of cell-free assembly

Substance | fold lower turbidity (A340 nm) at 120 min than WT [1] | normalized A340 nm (turbidity) [1] | further results
HIV-2 CA-NC protein (Gag amino acids 136-431), CA A41D mutant | 25-fold (A41D) lower than that of WT |  | normalized A340 nm (turbidity), whole time course [1]: low turbidity readings (i.e., < 0.36)
HIV-2 CA-NC protein (Gag amino acids 136-431), CA G38M mutant | 7.0-fold (i.e., G38M, N127E, I152A) | 0.34 | 
HIV-2 CA-NC protein (Gag amino acids 136-431), CA I152A mutant | 7.0-fold (i.e., G38M, N127E, I152A) | 0.65 | 
HIV-2 CA-NC protein (Gag amino acids 136-431), CA L19A mutant |  | 1.77 | 
HIV-2 CA-NC protein (Gag amino acids 136-431), CA N127E mutant | 7.0-fold (i.e., G38M, N127E, I152A) |  | 
HIV-2 CA-NC protein (Gag amino acids 136-431), wild type |  |  | normalized A340 nm (turbidity), peak at 20 min [2]: peaked at 20 min (i.e., 1.27); normalized A340 nm (turbidity), stable value after the peak [2]: remained stable (i.e., 0.56)
